Measured values: the supplement of paper PMC10724198
± gives the standard deviation of the averaged measurements.

Assays:
[1] = system: Saccharomyces cerevisiae; experiment: protein stability index of tFT-peptide fusion (C-terminal peptide) (PSI (0-1 scale)); higher = more stable (slower turnover)
Procedure: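 MPS profiling in S. cerevisiae of the tFT-X12 degron library: putative degron peptides plus stable controls, 12 aa, fused to the C-terminus of a sfGFP-mCherry timer. Cells are FACS-sorted into 8 mCherry/sfGFP bins and deep-sequenced. PSI runs from 0 (unstable) to 1 (stable). Backgrounds are wild type, das1Δ and doa10Δ at 30 °C, and wild type, das1Δ, cdc34-1 and cdc53-1 at 37 °C; 2-3 technical replicates each.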

[2] = system: Saccharomyces cerevisiae; experiment: as above; settings: genetic background: wild type; temperature: 30 C
[3] = genetic background: cdc34-1, temperature: 37 C
[4] = genetic background: cdc53-1, temperature: 37 C
[5] = genetic background: das1 deletion, temperature: 30 C
[6] = genetic background: das1 deletion, temperature: 37 C
[7] = genetic background: doa10 deletion, temperature: 30 C
[8] = genetic background: wild type, temperature: 30 C
[9] = genetic background: wild type, temperature: 37 C
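Note: PSI is a weighted mean of sequencing reads over stability bins, variants kept only with over 10 reads, mCherry proximal and sfGFP distal, peptide attached via GGGS linker.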

| Sequence | protein stability index [1, 3] | protein stability index [1, 4] | protein stability index [1, 5] | protein stability index [1, 6] | protein stability index [1, 7] | protein stability index [1, 8] | protein stability index [1, 9] | protein stability index [2] |
| --- | --- | --- | --- | --- | --- | --- | --- | --- |
| LGALFGRFWWYF | 0.664 ± 0.024 | 0.7416 ± 0.0074 | 0.654 ± 0.01 | 0.795 ± 0.013 | 0.278 ± 0.012 | 0.291 ± 0.023 | 0.541 ± 0.016 | 0.42 ± 0.027 |
| AHPTLILTNKIA | 0.578 ± 0.13 | 0.705 ± 0.063 | 0.643 ± 0.025 | 0.712 ± 0.044 | 0.0637 ± 0.025 | 0.104 ± 0.044 | 0.121 ± 0.023 | 0.237 ± 0.0044 |
| WVRLGRSWTTVG | 0.68 ± 0.054 | 0.736 ± 0.013 | 0.686 ± 0.035 | 0.754 ± 0.013 | 0.22 ± 0.034 | 0.283 ± 0.016 | 0.549 ± 0.0057 | 0.422 ± 0.029 |
| CFFFCSLFLSFL | 0.439 ± 0.022 | 0.452 ± 0.011 | 0.436 ± 0.022 | 0.498 ± 0.01 | 0.4065 ± 0.001 | 0.35 ± 0.0098 | 0.431 ± 0.015 | 0.3662 ± 0.0032 |
| PFPTPPPIPRSP | 0.665 ± 0.012 | 0.7375 ± 0.0026 | 0.686 ± 0.015 | 0.729 ± 0.0085 | 0.706 ± 0.035 | 0.696 ± 0.012 | 0.7051 ± 0.0068 | 0.464 ± 0.05 |
| SSCLPAPPPLPL | 0.6491 ± 0.003 | 0.747 ± 0.025 | 0.682 ± 0.042 | 0.698 ± 0.0084 | 0.677 ± 0.0075 | 0.672 ± 0.021 | 0.701 ± 0.017 | 0.4965 ± 0.0048 |
| LCFFLAFSFVFF | 0.253 ± 0.017 | 0.324 ± 0.011 | 0.231 ± 0.025 | 0.382 ± 0.026 | 0.289 ± 0.00096 | 0.236 ± 0.022 | 0.3374 ± 0.0016 | 0.296 ± 0.0099 |
| FLFSVVFFFFSL | 0.368 ± 0.028 | 0.4558 ± 0.0032 | 0.353 ± 0.021 | 0.5154 ± 0.003 | 0.322 ± 0.011 | 0.35 ± 0.025 | 0.4586 ± 0.0045 | 0.421 ± 0.066 |
| WQIGIYILQGLA | 0.271 ± 0.03 | 0.316 ± 0.0064 | 0.242 ± 0.04 | 0.389 ± 0.018 | 0.146 ± 0.011 | 0.163 ± 0.049 | 0.262 ± 0.015 | 0.256 ± 0.023 |
| FPCIFFFCLFIL | 0.209 ± 0.039 | 0.197 ± 0.0039 | 0.251 ± 0.027 | 0.337 ± 0.025 | 0.31 ± 0.013 | 0.203 ± 0.021 | 0.276 ± 0.016 | 0.271 ± 0.05 |
| PPLPPPPASVPP | 0.675 ± 0.022 | 0.719 ± 0.025 | 0.641 ± 0.011 | 0.7088 ± 0.0051 | 0.6476 ± 0.0014 | 0.682 ± 0.041 | 0.68 ± 0.03 | 0.503 ± 0.016 |
| LPHPLPFCFSLY | 0.711 ± 0.024 | 0.7672 ± 0.0058 | 0.672 ± 0.0085 | 0.7781 ± 0.0021 | 0.4271 ± 0.0037 | 0.451 ± 0.025 | 0.6683 ± 0.0063 | 0.515 ± 0.062 |
| LLLTAIRVLRMH | 0.561 ± 0.016 | 0.7045 ± 0.0038 | 0.587 ± 0.021 | 0.7177 ± 0.0014 | 0.118 ± 0.0018 | 0.149 ± 0.037 | 0.217 ± 0.033 | 0.169 ± 0.056 |
| TFLVWSLMAGDR | 0.449 ± 0.033 | 0.5276 ± 0.00077 | 0.447 ± 0.023 | 0.4667 ± 0.0043 | 0.484 ± 0.011 | 0.474 ± 0.043 | 0.459 ± 0.032 | 0.464 ± 0.03 |
| VRFLSLNVLFFC | 0.54 ± 0.032 | 0.625 ± 0.022 | 0.482 ± 0.025 | 0.628 ± 0.028 | 0.222 ± 0.0066 | 0.244 ± 0.029 | 0.48 ± 0.0046 | 0.38 ± 0.033 |
| VAFILVVCKGIG | 0.187 ± 0.029 | 0.2776 ± 0.0022 | 0.175 ± 0.016 | 0.327 ± 0.0048 | 0.122 ± 0.015 | 0.152 ± 0.013 | 0.287 ± 0.0077 | 0.2024 ± 0.00042 |
| LCGIFTFRLSLL | 0.693 ± 0.06 | 0.7815 ± 0.0027 | 0.668 ± 0.028 | 0.706 ± 0.014 | 0.245 ± 0.026 | 0.273 ± 0.024 | 0.437 ± 0.005 | 0.388 ± 0.051 |

| Sequence | protein stability index [1, 3] | protein stability index [1, 4] | protein stability index [1, 5] | protein stability index [1, 6] | protein stability index [1, 7] | protein stability index [1, 8] | protein stability index [1, 9] | protein stability index [2] |
| --- | --- | --- | --- | --- | --- | --- | --- | --- |
| YFFFPILCFCFF | 0.439 ± 0.03 | 0.43 ± 0.012 | 0.38 ± 0.028 | 0.479 ± 0.0088 | 0.429 ± 0.028 | 0.381 ± 0.018 | 0.437 ± 0.0084 | 0.419 ± 0.047 |
| HVPPVFQASLSP | 0.675 ± 0.072 | 0.7368 ± 0.0055 | 0.662 ± 0.014 | 0.743 ± 0.015 | 0.662 ± 0.011 | 0.667 ± 0.017 | 0.7131 ± 0.0057 | 0.747 ± 0.037 |
| KWGRFQQVMVIN | 0.558 ± 0.037 | 0.664 ± 0.014 | 0.5 ± 0.029 | 0.641 ± 0.0096 | 0.136 ± 0.0045 | 0.156 ± 0.022 | 0.34 ± 0.025 | 0.266 ± 0.0042 |
| FFSPFFFFLFRL | 0.306 ± 0.11 | 0.309 ± 0.0057 | 0.366 ± 0.035 | 0.453 ± 0.0074 | 0.483 ± 0.019 | 0.351 ± 0.0064 | 0.3971 ± 0.0026 | 0.414 ± 0.058 |
| SVFGLLSVCFFY | 0.488 ± 0.032 | 0.5669 ± 0.002 | 0.385 ± 0.029 | 0.604 ± 0.0077 | 0.358 ± 0.016 | 0.398 ± 0.018 | 0.549 ± 0.022 | 0.472 ± 0.019 |
| EKKRERQKGEME | 0.656 ± 0.055 | 0.7542 ± 0.0053 | 0.6109 ± 0.0056 | 0.72 ± 0.027 | 0.627 ± 0.026 | 0.635 ± 0.014 | 0.717 ± 0.012 | 0.579 ± 0.12 |
| TRHIGQYIHKIT | 0.641 ± 0.048 | 0.734 ± 0.027 | 0.635 ± 0.027 | 0.694 ± 0.037 | 0.151 ± 0.0037 | 0.233 ± 0.049 | 0.436 ± 0.0061 | 0.339 ± 0.081 |
| RLFLLIECSSGF | 0.451 ± 0.005 | 0.491 ± 0.0068 | 0.31 ± 0.046 | 0.493 ± 0.024 | 0.271 ± 0.0039 | 0.293 ± 0.035 | 0.508 ± 0.019 | 0.395 ± 0.045 |
| LYVLNILSFVCV | 0.1572 ± 0.0013 | 0.25 ± 0.0041 | 0.137 ± 0.013 | 0.251 ± 0.023 | 0.115 ± 0.0099 | 0.117 ± 0.017 | 0.207 ± 0.0027 | 0.1688 ± 0.00051 |
| RSGWWQWGRPGT | 0.698 ± 0.031 | 0.7525 ± 0.0031 | 0.661 ± 0.033 | 0.7712 ± 0.0041 | 0.692 ± 0.034 | 0.691 ± 0.03 | 0.734 ± 0.025 | 0.752 ± 0.049 |
| PCLLRYLVHPFP | 0.687 ± 0.026 | 0.765 ± 0.021 | 0.648 ± 0.014 | 0.7439 ± 0.0017 | 0.65 ± 0.013 | 0.667 ± 0.0086 | 0.7159 ± 0.0025 | 0.75445 ± 0.00044 |
| VVFSLLLWLFIS | 0.256 ± 0.022 | 0.405 ± 0.024 | 0.316 ± 0.047 | 0.47 ± 0.0075 | 0.161 ± 0.003 | 0.168 ± 0.018 | 0.194 ± 0.0057 | 0.216 ± 0.029 |
| CVGLYCLFVLLG | 0.289 ± 0.0046 | 0.357 ± 0.0088 | 0.273 ± 0.034 | 0.449 ± 0.019 | 0.172 ± 0.0049 | 0.161 ± 0.018 | 0.278 ± 0.0049 | 0.248 ± 0.004 |
| LPPSPPAPLSRL | 0.906 ± 0.024 | 0.8918 ± 0.0015 | 0.81 ± 0.012 | 0.8616 ± 0.0061 | 0.804 ± 0.022 | 0.801 ± 0.019 | 0.8571 ± 0.005 | 0.804 ± 0.066 |
| WCFFFVGCCCFG | 0.557 ± 0.044 | 0.59 ± 0.03 | 0.462 ± 0.034 | 0.5249 ± 0.004 | 0.479 ± 0.0084 | 0.481 ± 0.031 | 0.537 ± 0.013 | 0.479 ± 0.0056 |
| VQVLVAIMDGRM | 0.346 ± 0.023 | 0.4143 ± 0.0016 | 0.371 ± 0.031 | 0.387 ± 0.004 | 0.38 ± 0.039 | 0.37 ± 0.019 | 0.39 ± 0.017 | 0.354 ± 0.011 |
